Measurements taken from patent publication US20190367592A1 (AC IMMUNE, published 2019).
Substitutions are numbered along the chain they refer to. In names and notes the source's numbering stands. Each block holds one binder with its values, some of them ahead of it. Where no end group is shown, it is not given here.

Experiments:
[1] = biological target: T1, recombinant human Tau monomer, 2N4R isoform (amino acids 2-441) (human, UniProt P10636-8 2-441); assay: SPR, hIgG captured, Tau monomer analyte, 1:1 fit
T1 construct: range 2-441; N-terminal His-tag removed with TEV protease; also called monomeric Tau
Method: Affinity of selected antibodies was assessed at 25° C. using a Biacore T200 instrument, the GE Biacore human IgG capture kit and a CM5 Series S chip. The hIgG were diluted to 0.25 μg/ml in 10 mM HEPES pH7.4, 150 mM NaCl, 0.05% Tween 20 (running buffer, HBSP) and captured at a flow rate of 10 μl/min for 150 seconds. Kinetic data was collected for Human Tau monomer injected at concentrations of 0, 0.4, 1.2, 3.7, 11, 11, 33 and 100 nM in HBSP, using a flow rate of 30 μl/min, a 300 second association phase and a 600 second dissociation phase. Between cycles the surface was regenerated using two sequential 30 second injections of 3M MgCl at 10 μl/min. Data was fit to a 1:1 binding model (Table 15).

[2] = biological target: T1, recombinant human Tau monomer, 2N4R …; assay: SPR, hIgG captured, Tau monomer analyte; mean of four
Method: Affinity was assessed at 25° C. using a Biacore T200 instrument, the GE Biacore human IgG capture kit and a CM5 Series S chip. The hIgG were diluted to 2 μg/ml in 10 mM HEPES pH7.4, 150 mM NaCl, 0.05% Tween 20 (running buffer, HBSP) and captured at a flow rate of 10 μl/min for 22 seconds. […] Between cycles the surface was regenerated using a 30 second injection of 3M Magnesium Chloride at 10 μl/min. A 1:1 binding model was fitted to the data and affinities for hu37D3-H9.v5 and hu37D3-H9.v5.3 (also referred to herein as hu37D3-H9.v5 N28D) calculated using kinetic analysis. Parameters used for the 1:1 fitting included the Instrument default of local fitting for the “RI” parameter.

MAPT(10-24) [3] = biological target: T2, MAPT(10-24) (human, also: biotinylated, site not given here); assay: ELISA, biotinylated peptide on Neutravidin plate, IgG titrated, A450 nm
T2 construct: also called Tau fragment 10-24
T2 peptide: VMEDHAGTYGLGDRK
Method: (§1) Following a comparison of 37D3-H9 binding to biotinylated Tau monomer and biotinylated peptide (MAPT_10-24), binding of 37D3-H9 to additional biotinylated peptides was also assessed. Nunc maxisorp 96-well microplates were coated at 4° C. for >12 hours with Neutravidin diluted to 2 μg/ml in 50 mM Sodium Carbonate Buffer, pH 9.6. All subsequent incubations were performed at room temperature. After coating, plates were blocked with Superblock™ (PBS) Blocking Buffer (Thermo Fisher Scientific) for two hours then washed thoroughly with PBS, 0.05% Polysorbate 20. Wells were then exposed to biotinylated Tau peptides (Table 20) or Avi-tag biotinylated Tau monomer at 1 μg/ml for one hour and washed as previously. Peptides were synthesized using standard solid-phase Fmoc chemistry (see, e.g., Fmoc solid phase peptide synthesis: A practical approach; Chan, W. C., White, P. D., Eds.; Oxford University Press: New York, 2000). Antibodies 37D3-H9 mIgG2a and hu37D3-H9.v5 hIgG1, serially diluted from 500 nM to 50 pM in 90% Superblock™ (PBS) Blocking Buffer, were allowed to bind biotinylated-Tau coated wells for 90 minutes. Wells were washed as previously and bound antibody detected with peroxidase-conjugated secondary antibody (Invitrogen/Life Technologies) diluted 1/1000 in Superblock™ Blocking Buffer (Rabbit anti-Mouse IgG or Goat Anti-Human IgG (H+L) respectively). After twenty minutes wells were washed as previously and signal developed with TMB Microwell 2-Component Substrate (KPL). Reactions were stopped by addition of 1M Phosphoric Acid and absorbance at 450 nm was measured with a SpectraMax M2 platereader.

MAPT(2-24) = biological target: T3, MAPT(2-24) (human, biotinylated); assay: as above
T3 construct: also called Tau fragment 2-24
T3 peptide: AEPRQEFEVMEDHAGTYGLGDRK
Method: as §1

MAPT(2-34) = biological target: T4, MAPT(2-34) (human, biotinylated); assay: as above
T4 construct: also called Tau fragment 2-34
T4 peptide: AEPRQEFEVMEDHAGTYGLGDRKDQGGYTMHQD
Method: as §1

[4] = biological target: T1, recombinant human Tau monomer, 2N4R …; assay: SPR, captured IgG, Tau monomer analyte, 1:1 model; fit-quality column: Yes
Procedure, shortened: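 SPR read-out: Rmax divided by captured-IgG Ligand Level gives Normalized Rmax; post-stress (40° C., 2 weeks) over pre-stress (~4° C.) value is the Stability Index. Tau analyte at 0, 26.5, 265 nM, 180 s association, 300 s dissociation, multi-cycle kinetics, 1:1 model.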
Target sequence in this assay (P10636 other isoform, or with tags, fused parts or gaps limits assumed): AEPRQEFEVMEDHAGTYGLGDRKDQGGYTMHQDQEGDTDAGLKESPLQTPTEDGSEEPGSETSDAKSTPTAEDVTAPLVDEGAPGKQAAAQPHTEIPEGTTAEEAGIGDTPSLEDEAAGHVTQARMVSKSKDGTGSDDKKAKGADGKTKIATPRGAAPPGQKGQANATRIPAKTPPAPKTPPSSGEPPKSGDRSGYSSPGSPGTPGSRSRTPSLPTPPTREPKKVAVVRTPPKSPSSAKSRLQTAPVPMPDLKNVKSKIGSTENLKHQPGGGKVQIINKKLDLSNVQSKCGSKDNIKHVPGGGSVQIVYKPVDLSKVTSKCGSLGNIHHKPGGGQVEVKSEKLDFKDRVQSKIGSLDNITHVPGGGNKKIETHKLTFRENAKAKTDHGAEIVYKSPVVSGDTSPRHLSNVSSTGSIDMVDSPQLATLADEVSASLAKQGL

[5] = biological target: T1, recombinant human Tau monomer, 2N4R …; assay: SPR single-cycle, Tau monomer amine-coupled, Fab analyte; Fab, not IgG; Tau monomer on the chip
Method: (§2) Human monomer Tau protein was covalently coupled to a Biacore Series S CM5 chip using the Biacore Amine Coupling Kit (GE Life Sciences), resulting in immobilization to a level of approximately 128 RU. Direct binding of 37D3-H9 in both Fab and IgG formats was monitored using the single-cycle kinetics experimental format with five association periods of 300s each and antibody concentrations of 1, 2, 4, 8 and 16 nM (IgG) or 5, 10, 20, 40 and 80 nM (Fab). Dissociation was monitored for 7200 seconds (Fab) or for 14400 seconds (IgG). A value for the dissociation rate was calculated by fitting a 1:1 binding model to the data.

Tau fragment 9-23 = biological target: T5, Tau fragment 9-23 (human, UniProt P10636-8 9-23); assay: 15mer offset peptides
T5 construct: range 9-23
T5 peptide (looked up): EVMEDHAGTYGLGDR

Tau fragment 7-21 = biological target: T6, Tau fragment 7-21 (human, UniProt P10636-8 7-21); assay: 15mer offset peptides
T6 construct: range 7-21
T6 peptide (looked up): EFEVMEDHAGTYGLG

Tau fragment 8-22 = biological target: T7, Tau fragment 8-22 (human, UniProt P10636-8 8-22); assay: 15mer offset peptides
T7 construct: range 8-22
T7 peptide (looked up): FEVMEDHAGTYGLGD

Tau fragment 11-25 = biological target: T8, Tau fragment 11-25 (human, UniProt P10636-8 11-25, not fully specified); assay: 15mer offset peptides
T8 construct: range 11-25
T8 peptide (looked up): MEDHAGTYGLGDRKD

Tau fragment 2-21 Y18A = biological target: T9, Tau fragment 2-21 Y18A (human, UniProt P10636-8 2-21); assay: alanine scanning of Tau fragment 2-21
T9 construct: range 2-21
T9 peptide (looked up): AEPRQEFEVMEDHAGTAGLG

Tau fragment 2-21 L20A = biological target: T10, Tau fragment 2-21 L20A (human, UniProt P10636-8 2-21); assay: alanine scanning of Tau fragment 2-21
T10 construct: range 2-21
T10 peptide (looked up): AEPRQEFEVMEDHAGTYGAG

[6] = biological target: T1, recombinant human Tau monomer, 2N4R …; assay: SPR single-cycle, Tau monomer amine-coupled
Method: as §2

[7] = biological target: T11, full-length human Tau (flTau) (human, UniProt P10636-8 1-441); assay: SPR, hybridoma Ab on anti-IgG chip, flTau analyte
T11 construct: range 1-441; bought (SignalChem); also called human Tau-441
Procedure, shortened: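 Unpurified antibodies from serum-free hybridoma supernatants were captured on an anti-IgG SPR chip (Biacore T-100), and flTau was flowed as analyte. KD was obtained from kinetic analysis with a 1:1 Langmuir fit.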

[8] = biological target: T1, recombinant human Tau monomer, 2N4R …; assay: SPR, mIgG2a captured, Tau monomer analyte, 1:1 fit
Procedure, shortened: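 Antibodies in mIgG2a format captured on anti-mouse IgG surface at 1 μg/ml (30 or 45 s) or 0.1 μg/ml (70 or 150 s), 10 μl/min, in HBSP (10 mM HEPES pH7.4, 150 mM NaCl, 0.05% Tween 20). Tau monomer flowed as analyte; association 180-480 s, dissociation 300-600 s, 1:1 fit.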

MAPT(10-24) [9] = biological target: T2, MAPT(10-24); assay: ELISA on Tau 15-mer peptides, O.D.; conditions of this panel not given
Tau fragment 1-15 = biological target: T12, Tau fragment 1-15 (human, UniProt P10636-8 1-15); assay: as above
T12 construct: range 1-15
T12 peptide (looked up): MAEPRQEFEVMEDHA

Tau fragment 19-33 = biological target: T13, Tau fragment 19-33 (human, UniProt P10636-8 19-33, not fully specified); assay: as above
T13 construct: range 19-33
T13 peptide (looked up): GLGDRKDQGGYTMHQ

Tau fragment 28-42 = biological target: T14, Tau fragment 28-42 (human, UniProt P10636-8 28-42, not fully specified); assay: as above
T14 construct: range 28-42
T14 peptide (looked up): GYTMHQDQEGDTDAG

Tau fragment 37-51 = biological target: T15, Tau fragment 37-51 (human, UniProt P10636-8 37-51); assay: as above
T15 construct: range 37-51
T15 peptide (looked up): GDTDAGLKESPLQTP

[10] = biological target: T1, recombinant human Tau monomer, 2N4R …; assay: SPR single-cycle, Tau monomer amine-coupled, IgG analyte; IgG (bivalent, avidity); Tau monomer on the chip
Method: as §2

[11] = biological target: T1, recombinant human Tau monomer, 2N4R …; assay: SPR, hIgG captured, Tau monomer analyte; unstressed sample
Method: To assess the impact of N²⁸ deamidation on the affinity for human Tau, it was desirable to obtain two samples with widely separated N²⁸ deamidation status. Hu37D3-H9.v5 hIgG4.S228P was incubated at 40° C. for two weeks at a concentration of 1 mg/ml in Phosphate Buffered Saline, pH 7.4. Deamidation of the N²⁸G2⁹ motif was measured using LC-MS/MS. […] The stressed and unstressed antibodies were analyzed for Tau binding by surface plasmon resonance (Biacore) using the GE Biacore human IgG capture kit and a Series S CM5 chip. The hIgG were diluted to 2 μg/ml in 10 mM HEPES pH7.4, 150 mM NaCl, 0.05% Tween 20 (running buffer, HBSP) and captured at a flow rate of 10 μl/min for 15 seconds (t0 sample) or 17 seconds (t2 sample). […] Between cycles the surface was regenerated using a 30 second injection of 3M Magnesium Chloride at 10 μl/min. A 1:1 binding model was fitted to the data using instrument defaults, including local fitting of the “RI” parameter.

[12] = biological target: T1, recombinant human Tau monomer, 2N4R …; assay: SPR, hIgG captured, Tau monomer analyte; control sample
[13] = biological target: T1, recombinant human Tau monomer, 2N4R …; assay: SPR, hIgG captured, Tau monomer analyte; stressed sample

T11 sequence (P10636 other isoform, or with tags, fused parts or gaps limits assumed): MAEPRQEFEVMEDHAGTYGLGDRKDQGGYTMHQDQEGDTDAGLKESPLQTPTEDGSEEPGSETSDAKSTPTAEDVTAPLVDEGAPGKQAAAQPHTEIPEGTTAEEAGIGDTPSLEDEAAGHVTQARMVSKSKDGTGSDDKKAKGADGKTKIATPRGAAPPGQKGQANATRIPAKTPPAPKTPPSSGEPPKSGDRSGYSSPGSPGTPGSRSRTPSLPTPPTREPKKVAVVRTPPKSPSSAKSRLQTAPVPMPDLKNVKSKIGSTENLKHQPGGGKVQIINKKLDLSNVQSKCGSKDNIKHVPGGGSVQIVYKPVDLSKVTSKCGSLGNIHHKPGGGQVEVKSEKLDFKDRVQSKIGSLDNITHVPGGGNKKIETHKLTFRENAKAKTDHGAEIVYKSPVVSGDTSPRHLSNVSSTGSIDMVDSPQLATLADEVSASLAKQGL

Kd [1]: 1 nM | koff [1]: 0.0008 s⁻¹ | kon [1]: 750000 M⁻¹ s⁻¹ | Kd [2]: 1.5 nM | binding result (MAPT(10-24) [3]): binds | binding result (MAPT(2-24)): binds | binding result (MAPT(2-34)): binds | Kd [4]: 1 nM
B1: hu37D3-H9.v5 hIgG1 (antibody, V domains shown)
VH: EVQLVESGGGLVQPGGSLRLSCAASGLIFRSYGMSWVRQAPGKGLEWVATINSGGTYTYYPDSVKGRFTISRDNSKNTLYLQMNSLRAEDTAVYYCANSYSGAMDYWGQGTLVTVSS
VL: EDVLTQTPLSLPVTPGQPASISCRSSQSIVHSNGNTYFEWYLQKPGQSPQLLIYKVSNRFSGVPDRFSGSGSGTDFTLKISRVEAEDVGVYYCFQGSLVPWTFGQGTKVEIK
notes: human IgG1, kappa

koff [5]: 0.0005 s⁻¹
B2: 37D3-H9 Fab (Fab, V domains shown)
VH: EVQLVESGGDLAKPGGSLKLSCTASGLIFRSYGMSWVRQTPDKRLEWVATINSGGTYTYYPDSVKGRFTISRDNAKNTLYLQMSSLKSEDTAMYYCANSYSGAMDYWGQGTSVTVSS
VL: B1 VL with E1D, V3L, T14S, P15L, Q17D, Q50K, V88L, Q105G, V109L
notes: Fab format

binding result (Tau fragment 9-23): binds | binding result (Tau fragment 7-21): binds | binding result (Tau fragment 8-22): binds | binding result (Tau fragment 11-25): binds | binding result (Tau fragment 2-21 Y18A): no binding | binding result (Tau fragment 2-21 L20A): no binding | fold difference in dissociation rate, Fab against IgG [6]: 45 fold | Kd [7]: 1 nM | Kd [8]: 1.6 nM | koff [8]: 0.0001 s⁻¹ | kon [8]: 100000 M⁻¹ s⁻¹ | binding result (MAPT(10-24) [9]): binds | binding result (Tau fragment 1-15): no binding (tested: not given) | binding result (Tau fragment 19-33): no binding (tested: not given) | binding result (Tau fragment 28-42): no binding (tested: not given) | binding result (Tau fragment 37-51): no binding (tested: not given) | binding result (MAPT(2-24)): binds | binding result (MAPT(2-34)): binds | koff [10]: 1.1e-05 s⁻¹
B3: 37D3-H9 (antibody, mouse IgG2a, V domains shown)
VH: B2 VH
VL: B1 VL with E1D, V3L, T14S, P15L, Q17D, Q50K, V88L, Q105G, V109L
notes: also called 37D3-H9 mIgG2a; 37D3-H9 IgG

Kd [1]: 1.3 nM | koff [1]: 0.0009 s⁻¹ | kon [1]: 710000 M⁻¹ s⁻¹ | Kd [11]: 0.7 nM | Kd [12]: 1.5 nM | Kd [13]: 1.5 nM
B4: hu37D3-H9.v5 hIgG4.S228P (antibody, V domains shown)
VH: B1 VH
VL: B1 VL
notes: human IgG4 S228P, kappa; the t = 2 weeks sample is partly deamidated at light chain N28
